{
  "source": "patent US20220401560A1",
  "about": "“PEPTIDE ENCAPSULATING FERRITIN” (Ajinomoto Co., Inc., priority 2019, published 2022)",
  "key": {"SKBR-3 cell": {"system": "SKBR-3 cell", "experiment": "Cell incorporation observed with two-photon excitation fluorescence microscope", "type": "cell-based, human", "settings": "24 hours, same conditions as FACS test"}, "ferritin (FTH) [1]": {"target": "T1, ferritin (FTH) (Homo sapiens, UniProt P02794)", "T1 construct": "made in house; host or cells: Escherichia coli BL21 (DE3), plasmid pET20-FTH", "T1 sequence (P02794 whole entry)": "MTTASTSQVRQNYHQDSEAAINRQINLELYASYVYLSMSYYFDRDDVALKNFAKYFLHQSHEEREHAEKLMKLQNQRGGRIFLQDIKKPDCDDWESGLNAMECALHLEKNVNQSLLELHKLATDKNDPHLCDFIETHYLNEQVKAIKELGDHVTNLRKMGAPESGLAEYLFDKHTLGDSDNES", "experiment": "Search for peptides capable of being encapsulated into ferritin by disassembly/reassembly process, LC-MS detection", "settings": "encapsulation into ferritin (FTH); three trials", "method": "Peptides capable of being encapsulated into ferritin by disassembly/reassembly process were searched. In the disassembly/reassembly process, 1 mL of a 50 mM glycine hydrochloride buffer (pH 2.3) containing FTH at a final concentration of 5 mg/mL and the peptide at a final concentration of 0.5 mM, was left to stand at room temperature for 15 minutes. Next, 310 μL of a 1 M Tris hydrochloride buffer (pH 9.0) was added for neutralization, and left to stand at room temperature for 3 hours. After the standing, 1.2 mL of a 50 mM Tris hydrochloride buffer (pH 8.0) was added, and centrifuged (at 15,000 rpm for one minute). Thereafter, 2.5 mL of its supernatant was injected into a desalting column PD-10 (Sephadex G-25 filled product, GE Healthcare Inc.) equilibrated with a 50 mM Tris hydrochloride buffer (pH 8) for the elusion with 3.0 mL of a 50 mM Tris hydrochloride buffer (pH 8.0) to separate non-encapsulated peptides and ferritin. A whole amount (3.0 mL) of the resulting solution was concentrated to 0.1 mL by centrifugal ultrafiltration using Vivaspin 20-100K (GE Healthcare Inc.). The operation of adding 10 mL of a 50 mM Tris hydrochloride buffer to the concentrated solution and then concentrating was repeated twice to remove peptides that were not removed by PD-10 to obtain 0.1 mL of a sample solution. For the LC-MS analysis, 50 p1 of a 1 M glycine hydrochloride buffer (pH 2.3) was added to 50 μL of the sample solution and then the resulting solution was left to stand at room temperature for 15 minutes. To the solution, 900 μL of ethanol was added. Next, the resulting solution was stirred vigorously and then centrifuged (at 15,000 rpm for five minutes) for collection of the supernatant. The supernatant was analyzed using LCMS-2020 (Shimadzu Corporation) as LC-MS, Inertsil (Registered trademark) as a column, ODS-3, particle diameter of 2 μm and 2.1 mm×50 mm (GL science). Thereafter, 10 μL of the sample injected into the column was eluded at a flow rate of 0.2 mL/min for 10 minutes such that a mixing ratio of a solution A (0.1% formic acid/99.9% acetonitrile) and a solution B (50% water/50% acetonitrile) is from 95:5 to 95:5.\nThe encapsulation of the peptide into ferritin was studied by comparing in terms of the amount of the peptide detected by LC/MS between the sample prepared by encapsulating the peptide into ferritin at the disassembly/reassembly process and the sample prepared simply by mixing ferritin with the peptide. For example, ClAc-FHC was eluted at a retention time of 0.8 minute. […] However, the peak was not observed for the sample prepared by simply mixing the peptide with ferritin without performing the disassembly/reassembly process (FIG. 12B). FIG. 13 to FIG. 17 illustrate LC-MS results for FTH in which the peptide was encapsulated at the disassembly/reassembly process."}, "ferritin (FTH) [2]": {"target": "T1, ferritin (FTH)", "experiment": "Encapsulation of fluorescent dye-modified peptide into FTH, column chromatography with absorbance at 480 nm and LC-MS", "method": "Of a 50 mM glycine hydrochloride buffer (pH 2.3) that contains FTH (chemical formula weight: 509,421) at a final concentration of 5 mg/mL and the peptide at a final concentration of 0.5 mM, 0.5 mL was left to stand at room temperature for 15 minutes. Next, 50 μL of a 1 M Tris hydrochloride buffer (pH 9.0) was added for neutralization, and the resulting solution was left to stand at room temperature for 3 hours. After the standing, the resulting solution was centrifuged (at 15,000 rpm for one minute). Then, the supernatant was collected and the volume was increased up to 3 mL with a 10 mM Tris hydrochloride buffer (pH 8). The resulting solution was injected into the HiPrep 26/60 Sephacryl S-300 HR column (GE Healthcare Inc.) equilibrated with a 10 mM Tris-HCl buffer (pH 8.0) to separate and purify 24-mer FTH by size at a flow rate of 1.3 mL/minute. The purified ferritin was analyzed using a HiPrep 16/60 Sephacryl S-300 HR column (GE Healthcare Inc.) equilibrated with a 10 mM Tris-HCl buffer (pH 8.0) at a flow rate of 0.5 mL/minute and confirmed as the absorbance at 480 nm unobservable from FTH only, at the same position as that of a peak of FTH.\nThe solution containing the FTH was concentrated to 0.25 mL by centrifugal ultrafiltration using Vivaspin 20-100K (GE Healthcare Inc.). […] For the LC-MS analysis, 50 μL of a 1 M glycine hydrochloride buffer (pH 2.3) was added to 50 μL of the sample solution and then the resulting solution was left to stand at room temperature for 15 minutes. To the solution 900 μL of ethanol was added. Next, the resulting solution was stirred vigorously and then centrifuged (at 15,000 rpm for five minutes) to collect its supernatant. The supernatant was analyzed using LCMS-2020 (Shimadzu Corporation) as LC-MS, inertsil (Registered trademark) ODS-3 with a particle diameter of 2 μm and 2.1 mm×50 mm (GL science) as a column. Into the column, 10 μL of the sample was injected, and eluded at a flow rate of 0.2 mL/min for 10 minutes such that a mixing ratio of a solution A (0.1% formic acid/99.9% acetonitrile) and a solution B (50% water/50% acetonitrile) was from 95:5 to 95:5. The concentration of the contained protein was determined using a protein assay CBB solution (Nacalai Tesque, Inc.) in terms of bovine albumin as a standard. The concentration of the encapsulated peptide was determined based on the absorbance at 480 nm of the fluorescent dye FAM to which PKC-F is modified.\nFirst, the construction of FTH encapsulating two kinds of fluorescent dye-modified peptides [5(6)—FAM-[…] (SEQ ID NO: 10), FAM-SV40, chemical formula weight 1,516, and 5(6)—FAM-[…] […] (SEQ ID NO: 11), FAN-Np, chemical formula weight 384] was attempted. 0.5 mL of a 50 mM glycine hydrochloride buffer (pH 2.3) that contains FTH (chemical formula weight 509,421) at a final concentration of 5 mg/mL and a peptide at a final concentration of 0.5 mM, was left to stand at room temperature for 15 minutes. Next, 50 μL of a 1 M Tris hydrochloride buffer (pH 9.0) was added for neutralization, and the resulting solution was left to stand at room temperature for 3 hours. […] The absorbance at […] was confirmed at the same elusion position as that of ferritin 24-mer, for ferritin that was used for the operation to encapsulate FAM-SV40 therein. […] Next, the peptide amount of FAM-SV40 encapsulated in purified ferritin was quantified based on the 480 nm absorbance and by CBB staining with use of ferritin-amount-albumin as a standard."}, "ferritin (FTL)": {"target": "T2, ferritin (FTL) (Homo sapiens, UniProt P02792)", "T2 construct": "made in house; host or cells: Escherichia coli BL21 (DE3), plasmid pET20-FTL", "T2 sequence (P02792 whole entry)": "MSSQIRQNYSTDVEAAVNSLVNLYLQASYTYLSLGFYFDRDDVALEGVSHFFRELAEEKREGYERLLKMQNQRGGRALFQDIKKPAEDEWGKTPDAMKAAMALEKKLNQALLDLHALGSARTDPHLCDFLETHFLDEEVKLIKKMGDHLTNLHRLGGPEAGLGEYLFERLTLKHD", "experiment": "Encapsulation of fluorescent dye-modified peptide into FTL, column chromatography with absorbance at 480 nm", "settings": "absorbance at 480 nm at the position of the FTL peak", "method": "0.5 mL of a 50 mM glycine hydrochloride buffer (pH 2.3) that contains FTL (chemical formula weight 480,466) at a final concentration of 5 mg/mL and the peptide at a final concentration of 0.5 mM, was left to stand at room temperature for 15 minutes. Next, 50 μL of a 1 M Tris hydrochloride buffer (pH 9.0) was added for neutralization, and the resulting solution was left to stand at room temperature for 3 hours. After the standing, the resulting solution was centrifuged (at 15,000 rpm for one minute). Then, the supernatant was collected and diluted with a 10 mM Tris hydrochloride buffer (pH 8) up to 3 mL in volume. The resulting solution was injected into the HiPrep 26/60 Sephacryl S-300 HR column (GE Healthcare Inc.) equilibrated with D-PBS (-) (Fujifilm Wako Pure Chemical Corporation) to separate and purify 24-mer FTL by size at a flow rate of 1.3 mL/minute. The purified ferritin was analyzed using a HIPrep 16/60 Sephacryl S-300 HR column (GE Healthcare Inc.) equilibrated with PBS at a flow rate of 0.5 mL/minute."}},
  "note": "No end group written: not given here.",
  "data": [
    {"substance": "5(6)-FAM-RFARKGALRQKNVHEVKN (SEQ ID NO: 9) ({5(6)‑FAM}-RFARKGALRQKNVHEVKN) [PKC-F, fluorescent dye fluorescein (FAM)-modified peptide, linear]", "values": [
      {"measurement": "incorporation into cells, fluorescence at the interior of cells", "setting": "SKBR-3 cell", "value": "not confirmed"},
      {"measurement": "encapsulation", "setting": "ferritin (FTH) [1]", "value": "A (“A” represents peptides with three times of confirmation of encapsulation.)"},
      {"measurement": "molecules of peptide encapsulated in one molecule of ferritin on average", "setting": "ferritin (FTH) [2]; FTH, from molar ratio", "value": 8.5, "unit": "molecules"},
      {"measurement": "encapsulation of peptide in FTH", "setting": "ferritin (FTH) [2]; absorbance at 480 nm at elution position of 24-mer FTH, LC-MS", "value": "encapsulated by the ferritin encapsulation operation without being decomposed"},
      {"measurement": "encapsulation of peptide in FTL", "setting": "ferritin (FTL)", "value": "encapsulated in FTL"}
    ]}
  ]
}
